Assay results reported in the RNAGym collection of RNA variant scans (doi:10.1073/pnas.2313332121).

B1: TPR t1 (parent)
chain: GACCAAUCUGCCCUCAGAGCUCGAGAACAUCUUCGGAUGCAGAGGAGGCAGGCUUCGGUGGCGCGAUAGCGCCAACGUCCUCAACCUCCAAUGCAUCCCACCACAUGAUGAUGCCUGAAGAGCCUUGGUUUUUUG

Variants of: B1
Test: polymerase ribozyme fitness, log enrichment relative to wild type (log ratio); higher = more active; in vitro selection for triplet polymerase activity
Outline: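 Each subunit of a heterodimeric triplet polymerase ribozyme was mutagenized into a library by PCR, transcribed, and subjected to one round of in vitro selection, run in triplicate. Libraries were annealed with a biotinylated primer, the partner subunit and triplets, incubated frozen at −7 °C, and extended constructs were gel-excised, captured on streptavidin beads and recovered by RT-PCR. Input and output libraries were sequenced on Illumina, keeping genotypes with ≥10 input reads and ≥1 read per output. Fitness is log base 2 of genotype enrichment divided by wild-type enrichment, from inverse-variance-weighted replicate averages.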

In order of rising “polymerase ribozyme fitness (log ratio)” value:
1. GACCAAUCUGCCCUCUGAGCUCGAGAACAUCUUCGGAUGCAGAGGACGUAGGCUUCGGUGCCGCGAUAGCGCCAACGUCCUGAACCUCUAGUGCAUCCCACCACAUGAUGAUGCAUGAAGAGCCUUGGUUUUUUG [A16U G47C C49U G61C C82G C89U A91G C115A]  -7.61
2. GACCAUUCUGCCCUCAGAGCUCGAGAAGAUCUUCGGAUGCAGAGGAGGCAGGCUUCGGUGGCGCGAUAGCGUCAACGUCCUCAACCUCCAAUGCAUCCCACUCCAUGAUGAUGCCUGAAGAGCCUUGGUUUUUUG [A6U C28G C72U C102U A103C]  -7.04
3. GACCAAUCUGCCCUCAGAGCUCGAGGACAUCUUCGGAUGCACAGGAGGCAGGCUUCGGCGGCGCGAUAGCGCCAACGUCCUCAACCUCCAAUGCAUCCCACCACAUGAUGAUACCUGAAGAGCCUUGGUUUUUUG [A26G G42C U59C G113A]  -5.32
4. GACCAAUCUGCCCUCAGAGCUCGAGAACAUCUUCGGGUGCAGAGGAGGCAGGCUUCGGUGGCGCGAUAGCGCCAACGUCCUCAACCUACAAUGCAUCCCACCACAUGAUGAUUCCUGAAGAGCCUUGGUUUUUUG [A37G C88A G113U]  -5.31
5. GACCAAUCUGCCCUCAGAGCUCGAGAACAUCUUCGGAGGCAGAGGAGGUAGGCUUCGGUGGCGCGAUAGCGCCAACGUCGUCAACCUCCAAUGCAUCCCACCACAUGAUGAUGCCUGAAGAGCCUUGGUUUUUUG [U38G C49U C80G]  -4.88
6. GACCAAACUGCCCUCAGAGGUCGAGAACAUCUUCGGAUGCAGAGGAGGCAGGCUUCGGUGGCGCGAUAGCGCCAACGCCCUCAACCUCCAAUGCAUCCCACCACAUGAUGAUGCCUGAAGAGCCUUGGUUUUUUG [U7A C20G U78C]  -4.76
7. GACCAAUCUGCCCUCAGAGCUCGAGAACAUCUUCGGAUGCAGAGUAGGCAGGCUUCGGUGGCGUGAUAGCGCCAACGUCCUCAACCUCCAAUGCAACCCACCACAUGAUAAUGCCUGAACAGCCUUGGUUUUUUG [G45U C64U U96A G110A G120C]  -4.67
8. GACCAAUCUGCCCUCAGAGCUCGAGAACAUCUUCGGAUGCAGAGGAGGCAGGCUUCGGUGGCGCGAUAGCGCUAACGUCCUCAGCCUCCUAUGCAUCCCACCGCAUGAAGAUGCCUGAAGAGCAUUGGUUUUUUG [C73U A84G A90U A103G U109A C124A]  -4.51
9. GACCAAUCUGCCCUCAGAGCUCGAGAACAUCUUCGGAUGCAGAGGAGGCAGGCUUCGGUGGCGCGAUAGCGUCAACGUCCUCAACCUCCAAUGCAUCCCACCACAUGAUCAUGCCUGAAGAGCCUUGGUUUUUUG [C72U G110C]  -4.19
10. GACUAAUCUGCCAUCAGAGCUCGAGUACAUCUUCGGAUGCAGAGGAGGCAGGCUGCGGUGGUGCGAUAGCGCCAACGUCCUCAACCUCCAAUGCAUCCCACCACAUGAUGAUGCCUGAAGAGCCUUGGUUUUUUG [C4U C13A A26U U55G C62U]  -4.16
11. GACCAAUCUGCCCUCAGAGCUCGAGAACAUCUUCGGAUGCAGAGAAGGCAGGCUUCGGUGGCGCGAUAGCGCCGACGUCCUCAACCUCCAAUGCAUCCCACCACAUGAUGAUGCGUGAAGAGCCUUCGUUUUUUG [G45A A74G C115G G127C]  -4.14
12. GACCAAUCUGCCCUCAGAGCUCGAGAACAUCUUCGGAUGCAGAGGAGGCAGGCUUCGGUGGCGCGAUAGUGCCUACGUCCUCAACAUCCAAUGCAUCCCACCACAUGAUGAUGCCUGAAGAGCCUUGGUUUUUUG [C70U A74U C86A]  -4.13
13. GACCAAUCUGCCCUCAGUGCUCGAGAACAUCUUCGGAUGCAGAGGAGGCAGGCUUCGGUGGCGCGAUAGCGCCAACGUCCACAACCUCCAAUGCAUCCCACCACAUGAUGAUGACUGAAGAGCCUUGGUUUUUUG [A18U U81A C114A]  -3.7
14. GACCAAUCUGCCCUCAGAGCUCGAGUACAUCUUCGGAUGCAGAGGAGACAGGCUUCGGUGGCGCGAUAGCGUCAACGUCCUCAACCUCCAAUGCAUCCCACCACAUGAUGAUGCCUGAAGAGCCUUGGUUUUUUG [A26U G48A C72U]  -3.67
15. GAGCAAUCUGCCCUCAGAGCUCGAGAACAUCUUCGGUUGCAGAGGAGGCAGGCUUCGGUGGAGCGAUAGCGCCAACGUCCUCAACCUCCAAUGCUUCCCACCACAUGAUGAUGCCUGAACAGCCUUGGUUUUUUG [C3G A37U C62A A95U G120C]  -3.27
16. GACCAAUCUGCCCUCAGAGCUCGAGAACAUCUUCGGAUGCAGAGGAGGCAGGCUUCGGUCGCGCGAUAGCGCCAACGUCCUCAACCUCCAAUGCAUCCCACUACAUGAUGAUGCCUGAAGAGCCUUGGUUUUUUG [G60C C102U]  -2.87
17. GACCAAUCUGCCCUCAGAGCUCGAGUACAUCUUCGGAUGCAGAGGAGGCAGGCUUCGGUGGCGCGAUAGCGUCAACGUCCUCAACCUCCAAUGCAUCCCACCACAUGAUGAUGCCUGAAGAGCCUUGGUUUUUUG [A26U C72U]  -2.63
18. GACCAAUCUGCCCUCAGAGCUCGAGAACAUCUUCGGAUGCAGAGGAGGCAGGCUUCGGUGGCGCGGUAGCGCCAACGUCCUCAACCUCCAAUGCAUCCCACCACAUGAUGAUGCCCGAAGAGCCUUGGUUUUUUG [A66G U116C]  -2.62
19. GACCAAUCUGCCCUCAGAGCUCGAGAACAUCUUCGGAUGCAGAGGAGCCAGGCUUCGGUGGCGCGAUAGCUCCAACGUCCUCAACCUCCAAUGCAUCCCACCACAUGAUGAUGCCUGAAGAGCCUUGGUUUUUUG [G48C G71U]  -2.47
20. GACCAAUCUGCCCUCAGAGCUCGAGAACAUCUUCGGAUGCAGAGGAGGCAGGCUUCGGUGGCGCGAUAGCGCCAACGUCCUCAACCUCCAAUGCAUCCCAACACAUGAUGAUACCUGAAGAGCCUUGGUUUUUUG [C101A G113A]  -2.4
21. GACCAAUUUGCCCUCAGAGCUCGAGAACAUCCUCGGAUGCAGAGGAGGCAGGCUUCGGUGGAGCGAUAGCGCCAACGUCCUCAACCUCCAAUGCAUCCCACCACAUGAUGAUGCCUUAAGAGCCUUGGUUUUUUG [C8U U32C C62A G117U]  -2.35
22. GACCAAUCUGCCCUCAGAGCUCGAGAACAUCUUCGGAUGCAGAGGAGCGAGGCCUCGGUGGCGCGAUAGCGCCAACGUCCUCAACCUCCAAUGCCUCCCACCACAUGAUGAUGCCUAAAGAGCCUUGGUUUUUUG [G48C C49G U54C A95C G117A]  -2.24
23. GACCAAUCUGCCCUCAGAGCUCGAGAACAUCUUCGGAUGCAGAGGAGGCAGGCUUCGGUGGCGCGAUAGCGCCAACGUCCUCAACCUCCAAUGCAUUCCACCACAUGAUGAUGCCUGAAGAGCCUUGGAUUUUUG [C97U U129A]  -2.18
24. GACCAAUCUGCACUCAGAGCUCGAGAACAUCUUCGGAUGCAGAGGAGGCAGGCUUCGGUGGCGCGAUAGCGUCAACGUCCUCAACCUCCAAUGCAUCCCUCCACAUGAUGAUGCCUGAAGAGCCUUGGUUUUUUG [C12A C72U A100U]  -2.13
25. GACCAAUCUGCCCUCAGAGCUCGAGAACAUCUUCGGAUGCAGCGGAGUCAGGCAUCGGUGGCGCGAUAGCGCCAACUUCCUCAACCUCCAAUGCAUCCCACCACAUGAUGAUGCCUGAAAAGCCUUGGUUUUUUA [A43C G48U U54A G77U G120A G135A]  -2.07
26. GACCAAUCUGCCCUCAGAGCUCGAGAACAUCUUCGGAUGCAGAGGAGGCAGGCUUCGGUGGCGCGAUAGCGGCAACGUCCUCAACCUCCAAUCCAUCCCACCACAUGAUGAUGCCUGAAGAGCCUUGGUUUUUUG [C72G G93C]  -1.92
27. GACCAAUCUGCCCUCAGAGCUCGAGAACAUCUUCGGAUGCAGAGGAGGCAGGCUUCGGUGGCGCGAUAGCGCCAACGUCCUCAACCUCCAAUGCAUCCCACCACAUGAUGAUGUCUGAAGAGUCUUGGUUUUUUG [C114U C123U]  -1.92
28. GACCAAUCAGCCCUCAGAGCUCGAGAACAUGUUCGGAUGCAGAGGAGGCAGGCUUCGGUGGCGCGAUAGCGCCAACGUCCUCCACCUCCAAUGCAUCCCACCACAUCAUGAUGCCUGAAGAGCCUUGGUUUUUUG [U9A C31G A83C G107C]  -1.45
29. GACCAAUCUGCCCUCUGAGCUCGAGAACAUCUUCGGAUGCAGAGGAGGCAGGCUUCGGUGGCGCGAUAGCGACAACGUCCUCAACCUCCAAUGCAUCCCACCACAUGAUGAUGCCUGAAGAGCCUUGGUUUUUUG [A16U C72A]  -1.32
30. GACCAAUCGGCCCUCAGAGCUCGAGAACAUCUUCGUAUGCAGAGGAGGCAGGCUUCUGUGGUGCGAUAGCGCCAACGUCCUCAACCUCCAAUGCAUCCCACCACAUGAUGAUGCCUGAAGAGCCUUGGUUUUUUG [U9G G36U G57U C62U]  -1.11
31. GAGUAAUCUGCCCUCAGAGCUCGAGAACAUCUUCGGAUGCAGAGGAGGCAGGCUUCGGUGGCGCGAUAGCGCCAACGUCCUCUACCUCCAAUGCAUCCCACCACAUGAUGAUGCCUGAAGAUUCUUGGUUUUUUG [C3G C4U A83U G122U C123U]  -0.882
32. GACCAAUCUGCCCUCAGAGCUCGAGAACAUCUUCGGAUGCAGAGGAGGCAGGCAUCGGUGGCGCGAUAGCGCCAACGUCCUCAACCUCCAAUGCAUCCCACCACAUGAUGAUGCCUGAAGAGCCUUGGUUUUGUG [U54A U133G]  -0.274
33. GACCAAUCUGCCCUCAGAGCUCGAGAACAUCUUCGGAUGCAGAGGAGGCAGGCUUCGGUGACGCGAUAGCGCCAACGUCCUCAACCUGCAAUGCAUCCCACCACAUGAUGAUGCCUGAAGAGCCUUGGUUUUUUG [G61A C88G]  -0.136
34. GACCAAUCUGCCCUCAGAGCUCGAGAACAUCUUCGGAUGCAGAGGAGGCAGGCUUCGGUGGUGCGAUAGCGCCAACGUCCUCAACCUCCAAUGCAUCCCACCACAUGAUGAUGCCUGAAGAGCCUUGGUUUUUUG [C62U]  -0.118
35. GACCAAUCUGCCCUCAGAGCUCGAGAACAUCUUCGGAUGCAGAGGGGGCAGGCUGCGGUGGCGCGAUAGCGCCAACGUCCUCAACCCCCAAUGCAUCCCACCACAUGAUGAUGCCUGAAGAGCCUUGGUUUUUUG [A46G U55G U87C]  -0.104
36. GACCAAUCUGCCCUCAGAGCUCGAGAACAUCUUCGGAUGCAGAAGAGGCAGGCUUCGGUGGCGCGAUAGCGCCAACGUCCUCAACCUCCAAUGCAUCCCACCACAUGAUGAUGCCUGAAGCGCCGUGGUUUUUUG [G44A A121C U125G]  0.065
37. GACCAAUCUGCCCUCAGAGCUCGAGAACAUCUUCGGAUGCAGAGGAGGCAGGCUUCGGUGGCGCGAUAGCGUCAACGUCCUCAACCUCCAAUGCAUCCCACCACAUGAUGAUGCCUGUAGAGCCUUGGUCUUUUG [C72U A118U U130C]  0.16
38. GACCACUGUGCCCUCAGAGCUCGAGAACAUCUUCGGAUGCAGAGGAGGCAGGCUUCGGUGGCGCGAUAGCGACAACGUCCUCAACCUCCAAUGCAUCCCACCACAUGAUGAUGCCUGAAGAGCCUUGGUUUUUUG [A6C C8G C72A]  0.431
39. GACCAAUCUGCCCUCAGAGCUCGAGAACAUCUUCGGAUGCAGAGGAGGCAGGCUUCGGUGGCGCGAUAGCGCCAACGUCCUCGACCUCCAAUGCAUCCCACCACAUGAUGAUGCCUGAACAGCCUUGGUUUUUUG [A83G G120C]  0.655
40. GACCAUUCUGCCCUCAGAGCUCGAGAACAUCUUCGGUUGCAGAGGAGGCAGGCUUCGGUGGCGCGAUAGCGCCAACGUCCUCAACCUCCAAUGCAUCCCACCACAUGAUGAAGCCUGAAGAGCCUUGGUAUUUUG [A6U A37U U112A U130A]  0.657
41. GACCAAUCUGCCCUCAGAGCUCGAGAACAUCUUCGGAUGCAGAGGAGGCAGGCUUCGGUGGCGCGAUAGCGCCAACGUCCUCAACCUCCAAUGCAUCCCACCACAUGAUGAUGCCUGAAGCGCCGUGGUUUUUUG [A121C U125G]  0.923
42. GACCAAUCUGCCCUCAGAGCUCGAGAACAUCUUCGGAUGCAGAGGAGGCAGGCUUCGGUGGCGCGAUAGCGCUAACGUCCUCAACCUCCAAUGCAUCCCACCACAUGAUGAAGCCUGAAGAGCCUUGGUUUUUUG [C73U U112A]  1.41
